Measurements as given in patent US20050021237A1, “Method and apparatus for evaluating new chemical entities” (priority 2003, published 2005).

How the values were obtained:
[1] = Phase I studies (Clinical Investigator's Brochure); assay type: in vivo, humans; conditions: from Phase I doses ranging from 12-48 μg/kg/hour (48/12)
From the text: (§1) In the absence of more accurate TI data, this value is used in the example. LY203638 is classified as a cardiovascular agent (since there are no prior data for hematologic agents and it is not antimicrobial). The limitations in acquiring appropriate data for LY203638 underscores the requirement to have unfettered access to the NCE's data in order to optimize Pharminator's predictive accuracy.

[2] = Toxicology studies in primates; assay type: in vivo; conditions: Phase I and primate toxicology data taken together
From the text: as §1

[3] = primates; cited from earlier work

Recombinant human activated protein C [LY203638]
therapeutic index (TI) [1]: at least 4
therapeutic index (TI) [2]: approximately 4
dose at which toxic effects observed [3]: 8 mg/m^2/hour
no-observed-adverse-effect level [3]: 2 mg/m^2/hour
